Assay results: patent publication US20200270310A1, “MAFG AS A POTENTIAL THERAPEUTIC TARGET TO RESTORE CHEMOSENSITIVITY IN PLATINUM-RESISTANT CANCER CELLS” (FUNDACÓIN PARA LA INVESTIGACIÓN BIOMÉDICA DEL HOSPITAL …, priority 2017, published 2020)

T1: MAFG peptide M4 (IVQLKQRRRTLKNRGYAASCR) (Homo sapiens, UniProt O15525 SEQ:49-69)
T1 chain: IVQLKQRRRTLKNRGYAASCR

B1: apMAFG6F (ssDNA)
DNA: GCGGATGAAGACTGGTGTCGATGCATGTGTAGTGCATTTCGAGCCGTTCTATTGGTGTGCCCTAAATACGAGCAAC
B2: apMAFG3F (ssDNA)
DNA: GCGGATGAAGACTGGTGTGCTGTGCTTTGACGACTGTCTAGTGGGTTTTCTTCCCCCGGCCCTAAATACGAGCAAC
B3: GCGGATGAAGACTGGTGTGCTGTGCTTTGACGACTGTCTAGTGGGTTTTCTTCCCCCGGCCCTAAATACGAGCAAC (nucleic acid)
chain: B2 DNA
modifications: chemistry not given here
notes: DNA aptamer selected against the MAFG protein by SELEX
B4: apMAFG11F (ssDNA)
DNA: GCGGATGAAGACTGGTGTCGCGAACCGGGTTACTTTTGTCGCGGGTCGTCGGATCTGTGCCCTAAATACGAGCAAC
B5: GCGGATGAAGACTGGTGTCGCGAACCGGGTTACTTTTGTCGCGGGTCGTCGGATCTGTGCCCTAAATACGAGCAAC (nucleic acid)
chain: B4 DNA
modifications: chemistry not given here
notes: as for B3

Key:
[1] = target: BSA (UniProt P02769 P02769:25-607); test: ELONA; background control; MAFG signal up to four times that of BSA; details: label: 5' digoxigenin
[2] = target: T1, MAFG peptide M4 (IVQLKQRRRTLKNRGYAASCR); test: ELONA; 20 nM aptamer, 1 ug peptide plated, 37 C 1 h; values only in figure; epitope M4 (residues 57-75 of MAFG); details: protein: synthetic; tags: synthetic peptide; label: 5' digoxigenin
Procedure: (§1) FIG. 9. Characterization of the interaction of aptamers with MAFG. ELONAS in which the Aptamers bound to digoxigenin (20 nM) were incubated 1 hour at 37° C. with 10 peptides (1 μg) previously attached to the plate overnight. After incubating 1 hour with antidigoxigenin-Peroxidase 1/1000, ABTS was added and at 10 minutes the absorbance at 405 nm was measured.

[3] = system: H23R cells; test: Viability to CDDP after aptamer transfection (resistance index); format: cell-based, human; details: aptamer 25 nM, CDDP 72 h
Procedure: FIG. 6. Viability curves combining the best dose of aptamers (25nM) and increasing doses of CDDP. Each experimental group was exposed for 72 h to 6 different CDDP concentrations after aptamers transfection; data were normalized to each untreated control, set to 100% and represent the mean±SD of at least 3 independent experiments performed in quadruplicate at each drug concentration for each cell line analyzed 25nM of aptamers and increasing doses of CDDP in H23S/R cells.
Once identified the best dose of aptamers, cells were transfected with aptamers and treated with increased doses of CDDP to assay viability and ROS production as mentioned above. In parallel, for all the experiments, cells were seeded in 24-well plates for aptamers extraction and confirmation of aptamers transfection.
HEK293 and H23S/R cells were seeded into 96-well plates then transfected with 5, 12.5, 25, 75 and 100 nM of MAFG aptamers or treated with PBS-Mg using Jet Pei PolyPlus transfection reagent (PolyPlus Transfection, USA). The dose of 25 nM aptamer was afterwards used in combination with increased doses of CDDP to assay viability and ROS production as described above. To confirm the aptamer-transfection efficiency cells were seeded in 24-well plates for aptamer isolation and confirmation of aptamer transfection by quantitative analysis. A Myc-DDK-tagged ORF clone of MAFG the negative control pCMV6 were used for in transient transfection (OriGene, USA) in combination with MAFG-aptamers following the same procedure.

[4] = target: T2, MAFG-Myc (Homo sapiens, UniProt O15525); test: Enzyme-linked oligonucleotide assay (ELONA) of aptamers and aptamer populations; format: binding; details: for affinity against MAFG: Example 1, individual aptamers; for binding capacity to the target: Example 3, individual sequences from SEL6MAFG; for binding signal relative to BSA protein: individual sequences from SEL6MAFG
T2 construct: Myc (C); DDK (FLAG)
Procedure: FIG. 4. Analysis of the affinity of the aptamers against MAFG. (A) Quantification of aptamer-MAFG complexes by qPCR comparing absence (dot pattern) or presence (filled pattern) of MAFG protein. […] Bars represent the mean±SEM of 2-3 experiments (B) Specificity binding assay of aptamers to MAFG performed by ELONA. MAFG-myc was plated at 50ng/well in 96-well plates followed by incubation with 5′ digoxigenin-labeled aptamers from RND40, SEL3MAFG and SEL6MAFG. The figure represents the mean±SEM of 3 independent experiments. p<0.01. (C) Aptacytochemistry in HEK-293T cells transiently transfected with MAFG-myc. Cells overexpressing MAFG were incubated with 5′ Alexafluor 488-conjugated aptamers from RND40, SEL3MAFG or SEL6MAFG (upper panel) or Myc antibody (lower panel). Confocal microscopy images corresponding to the staining of nuclei with Hoechst (blue), antibodies (red), and aptamers (green) are shown. Arrowhead indicates positive cells. Bar=13 μm. (D) Study of individual aptamers affinity performed by ELONA. Recombinant MAFG was plated at 50 ng/well in 96-well plates followed by incubation with 5′ digoxigenin-labeled individual aptamers apMAGF3F, apMAFG6F and apMAFG11F. The figure represents the mean±SD of 2 independent experiments. (E) Secondary structures of aptamers apMAGF3F, apMAFG6F and apMAFG11F obtained by bioinformatics sequence analysis using the mFold software taking into account the lower free energy (AG).
(ii) Enzyme-linked oligonucleotide assay (ELONA): Aptamers were labeled by PCR using 5′ digoxigenin-labeled F3/5′ digoxigenin-labeled R3 primers (IBA Life Sciences). To assess the enrichment of the selected population and the affinity of the individual aptamers for the target, MAFG-Myc (50 ng) was incubated with the rounds 3, 6 of aptamers or the RND40 library. OD405nm values were determined using a SpectraFluor microplate reader (TECAN, Barcelona, Spain).

[5] = target: T3, MAFG in H23S and H23R cells (Homo sapiens, UniProt O15525); test: Aptacytochemistry with digoxigenin-labeled individual aptamers; format: cell-based
T3 construct: endogenous in cells; host or cells: H23S and H23R (NSCLC cells, fixed)
Procedure: Following the methodology described above, H23R cells were incubated with 6 pmol of digoxigenin-labeled aptamers (IBA Life Sciences) in selection buffer for 1 hour at room temperature. Subsequently, cells were washed three times with PBS and incubated with anti-digoxigenin conjugated with 5′ AlexaFluor 488 (R&D systems, USA) at 1/500 dilution in blocking buffer for 1 hour at room temperature, as secondary antibody. Finally, the cells were mounted on glass slides using glycerol-buffer containing p-phenylenediamine and 1/750 dilution of Dapi for nuclear staining. Controls were made by omitting the aptamer. Colocalization was assessed by confocal microcopy as described in (iii).

[6] = system: human MAFG peptides M1-M10; test: ELONA of aptamers with 10 MAFG peptides; format: binding; details: digoxigenin aptamer 20 nM, 1 μg peptide, absorbance at 405 nm
Procedure: as §1
In order to identify compounds of the invention and starting from the amino acidic sequence of human MAFG (NCBI Reference Sequence: NP_116100.2) of: SEQ ID NO 2: […]); we designed the following 10 peptides (please refer to table below):
Peptide M4, amino acids 49-68 corresponds to the basic MAFG region containing the tyrosine residue (Tyr64), as well as the arginine residue (Arg57) required for binding to the DNA, in addition to a nuclear localization signal.

[7] = target: T4, MAFG in tumor samples of patients with lung cancer (Homo sapiens, UniProt O15525); test: Aptahistochemistry in NSCLC tumor samples; details: 20 tumor samples classified by MAFG mRNA levels
T4 construct: from tissue; host or cells: Formalin-fixed paraffin-embedded NSCLC tumour sections
Procedure: The formalin-fixed and paraffin-embedded tissue sections of patients with lung cancer were baked 15 minutes at 60° C. Deparaffinization was performed by two washes of xylene for 10 minutes each. Tissue sections were rehydrated by a sequential wash in 100%, 90%, 80%, 70% ethanol and distilled water for 5 minutes each. Antigen retrieval was achieved by heat treatment in a pressure cooker for 2 minutes in 10 mM citrate buffer (pH 6.5). Endogenous peroxidase activity of tissues was blocked with 0.3% […]. The primary binding reaction was performed with 10 pmol/ml of digoxigenin-conjugated aptamers overnight at room temperature. The secondary binding reaction was performed with anti-digoxigenin conjugated with POD (Roche; 1/200 dilution in TBS) for 45 minutes. Staining was done using the Immunoperoxidase DAB kit (Master Diagnostica), according to the manufacturer's instructions. The sections were counterstained with hematoxylin.
We then took advantage of the aptacytochemistry to perform an aptamer-based histochemistry in 20 tumor samples from our cohort of patients with known mRNA levels of MAFG. […] To determine the correlation between the aptahistochemistry and the mRNA levels of MAFG, we calculated the percentage of cells with positive staining from the total number of cells computed at four different areas randomly selected for each sample.

Molecule | binding result [1] | binding result [2] | CDDP resistance index after aptamer transfection [3] | affinity against MAFG [4] | binding capacity to the target [4] | binding signal relative to BSA protein [4] | cellular localization of the aptamer [5] | number of dots per nucleus, H23R versus H23S [5] | interaction of aptamers with the 10 MAFG peptides by ELONA [6] | percentage of positive cells in samples with higher MAFG levels [7]
B1 | no binding | binds | – | – | – | – | – | – | – | –
B2 | no binding | – | – | – | – | – | – | – | – | –
B3 | – | – | no changes | high affinity | high binding capacity to the target in the nanomolar range | four times that of the BSA protein | also present in the cytoplasm | remarkable differences | recognized peptide M4 | significant increment in the percentage of positive cells
B4 | no binding | – | – | – | – | – | – | – | – | –
B5 | – | – | no changes | high affinity | high binding capacity to the target in the nanomolar range | four times that of the BSA protein | – | no differences | recognized peptide M4 | –
